Here are results for one molecule from PMC5336186 (Nature cell biology, 2017).

Experiment [1] has as its target T1, GST-LLGL2, unphosphorylated (No-P) (UniProt Q6P1M3 1-1020).
T1 sequence (looked up): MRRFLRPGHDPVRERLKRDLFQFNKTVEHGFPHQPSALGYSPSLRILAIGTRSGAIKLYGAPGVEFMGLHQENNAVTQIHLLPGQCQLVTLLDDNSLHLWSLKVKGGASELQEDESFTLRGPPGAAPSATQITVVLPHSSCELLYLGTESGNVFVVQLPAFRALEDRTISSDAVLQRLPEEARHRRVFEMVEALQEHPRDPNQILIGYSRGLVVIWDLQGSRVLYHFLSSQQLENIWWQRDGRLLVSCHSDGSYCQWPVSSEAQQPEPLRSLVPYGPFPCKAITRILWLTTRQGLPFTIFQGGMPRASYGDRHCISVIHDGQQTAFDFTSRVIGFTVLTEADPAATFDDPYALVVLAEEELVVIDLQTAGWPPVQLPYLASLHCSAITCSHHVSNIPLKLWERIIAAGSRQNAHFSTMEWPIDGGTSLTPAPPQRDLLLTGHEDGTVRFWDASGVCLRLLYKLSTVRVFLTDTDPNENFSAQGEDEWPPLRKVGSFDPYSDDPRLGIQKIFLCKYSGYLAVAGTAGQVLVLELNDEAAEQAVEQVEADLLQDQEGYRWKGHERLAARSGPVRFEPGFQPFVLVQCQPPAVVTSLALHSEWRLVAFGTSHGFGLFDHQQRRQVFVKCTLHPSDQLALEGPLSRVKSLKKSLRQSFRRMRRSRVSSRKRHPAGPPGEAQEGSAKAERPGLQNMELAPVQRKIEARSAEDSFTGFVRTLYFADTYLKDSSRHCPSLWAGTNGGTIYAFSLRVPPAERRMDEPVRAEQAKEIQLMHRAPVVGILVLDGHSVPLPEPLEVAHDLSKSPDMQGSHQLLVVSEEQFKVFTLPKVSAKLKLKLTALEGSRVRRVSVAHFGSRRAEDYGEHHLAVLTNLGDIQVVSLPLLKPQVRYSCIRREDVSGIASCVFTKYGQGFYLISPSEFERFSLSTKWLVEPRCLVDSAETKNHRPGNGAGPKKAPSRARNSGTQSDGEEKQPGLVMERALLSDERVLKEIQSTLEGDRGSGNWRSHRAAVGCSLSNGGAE
The experiment is described as follows: pull-down.

Experiment [2] addresses T2, GST-LLGL2 phosphorylated at Tyr499 (P-LLGL2) (UniProt Q6P1M3 1-1020, phosphotyrosine at Tyr499).
T2 sequence (looked up): T1 sequence (looked up)
Kind of experiment: pull-down.

B1: recombinant BCAR3 (natural protein, UniProt O75815 1-825, looked up)
chain: MAAGKFASLPRNMPVNHQFPLASSMDLLSSRSPLAEHRPDAYQDVSIHGTLPRKKKGPPPIRSCDDFSHMGTLPHSKSPRQNSPVTQDGIQESPWQDRHGETFTFRDPHLLDPTVEYVKFSKERHIMDRTPEKLKKELEEELLLSSEDLRSHAWYHGRIPRQVSENLVQRDGDFLVRDSLSSPGNFVLTCQWKNLAQHFKINRTVLRLSEAYSRVQYQFEMESFDSIPGLVRCYVGNRRPISQQSGAIIFQPINRTVPLRCLEEHYGTSPGQAREGSLTKGRPDVAKRLSLTMGGVQAREQNLPRGNLLRNKEKSGSQPACLDHMQDRRALSLKAHQSESYLPIGCKLPPQSSGVDTSPCPNSPVFRTGSEPALSPAVVRRVSSDARAGEALRGSDSQLCPKPPPKPCKVPFLKVPSSPSAWLNSEANYCELNPAFATGCGRGAKLPSCAQGSHTELLTAKQNEAPGPRNSGVNYLILDDDDRERPWEPAAAQMEKGQWDKGEFVTPLLETVSSFRPNEFESKFLPPENKPLETAMLKRAKELFTNNDPKVIAQHVLSMDCRVARILGVSEEMRRNMGVSSGLELITLPHGHQLRLDIIERHNTMAIGIAVDILGCTGTLEDRAATLSKIIQVAVELKDSMGDLYSFSALMKALEMPQITRLEKTWTALRHQYTQTAILYEKQLKPFSKLLHEGRESTCVPPNNVSVPLLMPLVTLMERQAVTFEGTDMWEKNDQSCEIMLNHLATARFMAEAADSYRMNAERILAGFQPDEEMNEICKTEFQMRLLWGSKGAQVNQTERYEKFNQILTALSRKLEPPPVKQAEL
Consider B1, for which the binding result in experiment [1] and in experiment [2] was “binds” throughout.
